Legend:
[1] = target: poly(ADP-ribose) polymerase I (PARP-1), native, co-purified from HeLa cells (UniProt P09874); experiment: cell-based or functional assay
[2] = target: mutated e-mH2A1.1 nucleosome complex (HXTX motif at positions 213-216 converted to AAAA) (human) (UniProt O75367); experiment: tagged nucleosome complexes isolated at 300 mM NaCl, silver stained SDS-PAGE, PARP-1 relative to histone H1
Sequence of mutated e-mH2A1.1 nucleosome complex (HXTX motif at positions 213-216 converted to AAAA) (human) (O75367 whole entry, change not shown, one chain of several): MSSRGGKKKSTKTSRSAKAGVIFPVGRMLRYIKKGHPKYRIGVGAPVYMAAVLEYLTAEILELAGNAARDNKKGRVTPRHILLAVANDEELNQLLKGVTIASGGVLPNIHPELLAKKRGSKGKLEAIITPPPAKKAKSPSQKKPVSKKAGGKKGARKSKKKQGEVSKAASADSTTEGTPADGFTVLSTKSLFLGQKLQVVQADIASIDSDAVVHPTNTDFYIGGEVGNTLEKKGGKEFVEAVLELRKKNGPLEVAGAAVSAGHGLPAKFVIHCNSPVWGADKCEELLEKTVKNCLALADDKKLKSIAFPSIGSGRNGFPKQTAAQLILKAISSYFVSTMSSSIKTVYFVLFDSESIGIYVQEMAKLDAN

Sequence of poly(ADP-ribose) polymerase I (PARP-1), native, co-purified from HeLa cells (P09874 2-1014 limits assumed): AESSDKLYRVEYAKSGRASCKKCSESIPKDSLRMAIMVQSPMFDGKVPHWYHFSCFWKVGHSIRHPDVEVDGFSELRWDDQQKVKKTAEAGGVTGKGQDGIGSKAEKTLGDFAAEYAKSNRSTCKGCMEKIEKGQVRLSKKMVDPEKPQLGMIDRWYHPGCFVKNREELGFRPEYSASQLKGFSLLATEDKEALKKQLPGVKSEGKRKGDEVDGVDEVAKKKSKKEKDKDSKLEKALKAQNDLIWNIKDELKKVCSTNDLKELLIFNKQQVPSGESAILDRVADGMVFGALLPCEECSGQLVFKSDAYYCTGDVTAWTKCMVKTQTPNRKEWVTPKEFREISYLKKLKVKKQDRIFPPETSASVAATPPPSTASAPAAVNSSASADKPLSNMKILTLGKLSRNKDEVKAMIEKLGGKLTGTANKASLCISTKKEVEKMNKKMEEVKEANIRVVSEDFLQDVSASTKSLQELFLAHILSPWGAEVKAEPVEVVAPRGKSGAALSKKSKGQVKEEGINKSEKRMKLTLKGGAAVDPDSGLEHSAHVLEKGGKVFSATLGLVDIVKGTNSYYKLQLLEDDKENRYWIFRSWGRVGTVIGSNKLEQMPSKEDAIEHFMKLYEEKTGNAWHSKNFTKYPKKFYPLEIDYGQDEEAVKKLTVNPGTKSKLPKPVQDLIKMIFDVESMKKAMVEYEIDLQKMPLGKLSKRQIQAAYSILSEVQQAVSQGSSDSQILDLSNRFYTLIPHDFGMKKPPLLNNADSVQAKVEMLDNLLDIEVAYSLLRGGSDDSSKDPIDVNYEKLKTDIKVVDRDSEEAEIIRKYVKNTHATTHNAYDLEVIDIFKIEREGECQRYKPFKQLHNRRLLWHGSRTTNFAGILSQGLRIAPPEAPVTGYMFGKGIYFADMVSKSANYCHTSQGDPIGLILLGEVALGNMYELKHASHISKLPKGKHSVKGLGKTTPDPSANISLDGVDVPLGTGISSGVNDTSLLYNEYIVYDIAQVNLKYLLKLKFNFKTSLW

Row | extent of PARP-1 labeling during the first minute, against PARP-1 associated with the wild type e-mH2A1.1 nucleosomes [1] [times] | amount of PARP-1 associated, percent of that associated with the WT emH2A1.1 nucleosome complex [2] [%] | Substance
1 | 37 | – | mutated e-mH2A1.1 nucleosome complex (HXTX motif at positions 213-216 converted to AAAA) (from UniProt O75367 1-369)
2 | – | 8 to 10 | poly(ADP-ribose) polymerase I (PARP-1), native, co-purified from HeLa cells (from UniProt P09874 2-1014)

— patent US20100323974A1
